Here are results for three molecules from patent publication US11976099B2, “Compositions and methods for treatment of bone associated diseases” (THE NATIONAL INSTITUTE FOR BIOTECHNOLOGY IN THE NEGEV LTD., priority 2016, dated 2024).

Substitutions are numbered along the chain they refer to. Numbers in names are those of the source.

B1: M-CSFM: 158 amino acid M-CSF with cysteine at position 31 replaced by serine (SEQ ID NO: 2) (protein)
chain: EEVSEYCSHMIGSGHLQSLQRLIDSQMETSSQITFEFVDQEQLKDPVCYLKKAFLLVQDIMEDTMRFRDNTPNAIAIVQLQELSLRLKSCFTKDYEEHDKACVRTFYETPLQLLEKVKNVFNETKNLLDKDWNIFSKNCNNSFAECSSQGHERQSEGS
B2: M-CSFWT: wild-type human M-CSF, disulfide-bond-linked homodimer which binds and activates c-FMS (protein)
chain: B1 chain with S31C
B3: M-CSFC31S,M27R: M-CSF double mutant containing both C31S and M27R; monomeric, monospecific c-FMS antagonist (protein)
chain: B1 chain with M27R

This data set in a line: Dynamic light scattering (DLS). Format: physicochemical. Particulars: 0.5 mg/ml; angle of 90°. Here is the method:
Dynamic light scattering (DLS)—The hydrodynamic radii of M-CSFWT, M-CSFC31S and M-CSFC31S,M27R were determined using DLS. The proteins, in a concentration of 0.5 mg/ml, were filtered to remove aggregates and contaminants. Light scattering was measured at an angle of 90° three times, in two different experiments, resulting in a total of six measurements. […] An analysis of the solution was conducted to verify that the most abundant specie was in the size range of 1-10 nm. The peak for this specie was compared for the three different proteins, and the hydrodynamic radius of each was determined as the maximum of the peak.
Next, the size of the M-CSF variants was evaluated in solution. M-CSFWT, M-CSFC31S and M-CSFC31S,M27R at concentrations of 0.5 mg/ml were subjected to dynamic light scattering (DLS) analysis at an angle of 90°. The peaks for the most abundant species in each sample were compared (FIG. 16B), and an estimated hydrodynamic radius was calculated from each peak. […] To confirm that the oligomeric state of M-CSFC31S,M27R is not concentration dependent, all M-CSF variants were subjected to SAXS measurements at concentrations of 3, 5 and 7 mg/ml. Of note is that the Rg values remained within a similar range for M-CSFWT and M-CSFC31S. There was a slight increase in the Rg value of M-CSFC31S,M27R at higher concentrations, presumably due to an increase in interparticle interactions. […] To illustrate the oligomeric states of these three proteins in solution, low-resolution structures were reconstructed from the SAXS data. Ab initio models were reconstructed from SAXS data using the computer program GASBOR and were averaged by the computer program DAMAVER. The crystal structure of the M-CSF dimer and the structure of the monomer were aligned with the obtained SAXS models (yellow, M-CSFWT; green, M-CSFC31S; cyan, M-CSFC31S,M27R) using PyMOL (http://www.pymol.org).
The molecule B1 came in with a hydrodynamic radius of 3.56±0.24 nm. Next, B2: 3.73±0.19 nm.

With B3, the hydrodynamic radius is 2.94±0.10 nm.
